Test results as given in patent US20190048095A1 (BIO THERA SOLUTIONS, published 2019).

T1: TROP2 (TACSTD2), on TROP2 positive human tumor cell lines MDA-MB-468, A431 and N87 (human, UniProt P09758 27-323)
T1 sequence (looked up): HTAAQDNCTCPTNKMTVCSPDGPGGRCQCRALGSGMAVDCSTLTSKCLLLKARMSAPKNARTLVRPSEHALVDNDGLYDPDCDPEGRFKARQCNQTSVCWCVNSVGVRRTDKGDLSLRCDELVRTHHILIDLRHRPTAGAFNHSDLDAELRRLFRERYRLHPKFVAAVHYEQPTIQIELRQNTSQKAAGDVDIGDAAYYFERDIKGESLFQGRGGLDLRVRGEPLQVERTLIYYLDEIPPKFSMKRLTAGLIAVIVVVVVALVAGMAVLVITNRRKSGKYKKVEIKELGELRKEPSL

B1: Batansine-0806 (anti-TROP2 antibody BAT0806 conjugated with 3AA-MDC) (antibody)
light: DIQLTQSPSSLSASVGDRVSITCKASQDVSIAVAWYQQKPGKAPKLLIYSASYRYTGVPDRFSGSGSGTDFTLTISSLQPEDFAVYYCQQHYITPLTFGAGTKVEIKRTVAAPSVFIFPPSDEQLKSGTASVVCLLNNFYPREAKVQWKVDNALQSGNSQESVTEQDSKDSTYSLSSTLTLSKADYEKHKVYACEVTHQGLSSPVTKSFNRGEC
heavy: not shown
modifications: 3AA-MDC (batansine maytansinoid-linker) on cysteine thiols freed by partial TCEP reduction; positions not given
B2: Batansine-0807 (anti-TROP2 antibody BAT0807 conjugated with 3AA-MDC) (antibody, human IgG1, kappa)
light: DIQLTQSPSSLSASVGDRVSITCKASQDVSIAVAWYQQKPGKAPKLLIYSASYRYTGVPDRFSGSGSGTDFTLTISSLQPEDFAVYYCQQHYITPLTFGAGTKVEIKRTVAAPSVFIFPPSDEQLKSGTASVVCLLNNFYPREAKVQWKVDNALQSGNSQESVTEQDSKDSTYSLSSTLTLSKADYEKHKVYACEVTHQGLSSPVTKSFNRGEC
heavy: not shown
modifications: 3AA-MDC on site-mutated (engineered) cysteine(s); position not printed for this antibody
B3: BAT0806-CL2A-SN-38 (anti-TROP2 antibody BAT0806 conjugated with CL2A-SN-38) (antibody, human IgG1, kappa)
light: DIQLTQSPSSLSASVGDRVSITCKASQDVSIAVAWYQQKPGKAPKLLIYSASYRYTGVPDRFSGSGSGTDFTLTISSLQPEDFAVYYCQQHYITPLTFGAGTKVEIKRTVAAPSVFIFPPSDEQLKSGTASVVCLLNNFYPREAKVQWKVDNALQSGNSQESVTEQDSKDSTYSLSSTLTLSKADYEKHKVYACEVTHQGLSSPVTKSFNRGEC
heavy: not shown
modifications: CL2A-SN-38 on cysteine thiols freed by TCEP reduction; positions not given
B4: Batansine-0808 (anti-TROP2 antibody BAT0808 conjugated with 3AA-MDC) (antibody, human IgG1, kappa)
light: DIQLTQSPSSLSASVGDRVSITCKASQDVSIAVAWYQQKPGKAPKLLIYSASYRYTGVPDRFSGSGSGTDFTLTISSLQPEDFAVYYCQQHYITPLTFGAGTKVEIKRTVAAPSVFIFPPSDEQLKSGTASVVCLLNNFYPREAKVQWKVDNALQSGNSQESVTEQDSKDSTYSLSSTLTLSKADYEKHKVYACEVTHQGLSSPVTKSFNRGEC
heavy: not shown
modifications: 3AA-MDC on site-mutated (engineered) cysteine(s); position not printed for this antibody; glycan with fucose content of 0-5%

Experiments:
[1] = target: T1, TROP2 (TACSTD2), on TROP2 positive …; test: cell-based or functional assay
[2] = target: T1, TROP2 (TACSTD2), on TROP2 positive …; test: cell-based or functional assay; remark: listed apart in the source

Row | Binder | EC50, proliferation inhibition of A431 cells (CCK8, 72 h) [1] [nM] | EC50, proliferation inhibition of MDA-MB-468 cells (CCK8, 72 h) [1] [nM] | EC50, proliferation inhibition of N87 cells (CCK8, 72 h) [1] [nM] | EC50 (nM), synergistic ADCC, A431 with PBMC (PBMC cell:target cell 10:1) [2] [nM] | EC50 (nM), cell proliferation, A431 [2] [nM] | EC50 (nM), cell proliferation, MDA-MB-468 [2] [nM] | EC50 (nM), cell proliferation, N87 [2] [nM] | EC50 (nM), synergistic ADCC, A431 with PBMC (PBMC cell:target cell 5:1) [2] [nM]
1 | B1 | 0.53 | 3.21 | 0.34 | 0.006 | – | – | – | –
2 | B2 | 1.73 | 2.89 | 0.77 | 0.011 | – | – | – | –
3 | B3 | – | – | – | – | 1.26 | 1.84 | 1.84 | 0.143
4 | B4 | 1.53 | 5.61 | 1.47 | 0.001 | 2.89 | 1.95 | 0.56 | –
